From article PMC3272839

Target: LRP1 minireceptor of domain IV, mLRP4 (UniProt Q07954)
Experiment: flow cytometry on cells

Sequence of UniProt Q07954 (Q07954 20-4544): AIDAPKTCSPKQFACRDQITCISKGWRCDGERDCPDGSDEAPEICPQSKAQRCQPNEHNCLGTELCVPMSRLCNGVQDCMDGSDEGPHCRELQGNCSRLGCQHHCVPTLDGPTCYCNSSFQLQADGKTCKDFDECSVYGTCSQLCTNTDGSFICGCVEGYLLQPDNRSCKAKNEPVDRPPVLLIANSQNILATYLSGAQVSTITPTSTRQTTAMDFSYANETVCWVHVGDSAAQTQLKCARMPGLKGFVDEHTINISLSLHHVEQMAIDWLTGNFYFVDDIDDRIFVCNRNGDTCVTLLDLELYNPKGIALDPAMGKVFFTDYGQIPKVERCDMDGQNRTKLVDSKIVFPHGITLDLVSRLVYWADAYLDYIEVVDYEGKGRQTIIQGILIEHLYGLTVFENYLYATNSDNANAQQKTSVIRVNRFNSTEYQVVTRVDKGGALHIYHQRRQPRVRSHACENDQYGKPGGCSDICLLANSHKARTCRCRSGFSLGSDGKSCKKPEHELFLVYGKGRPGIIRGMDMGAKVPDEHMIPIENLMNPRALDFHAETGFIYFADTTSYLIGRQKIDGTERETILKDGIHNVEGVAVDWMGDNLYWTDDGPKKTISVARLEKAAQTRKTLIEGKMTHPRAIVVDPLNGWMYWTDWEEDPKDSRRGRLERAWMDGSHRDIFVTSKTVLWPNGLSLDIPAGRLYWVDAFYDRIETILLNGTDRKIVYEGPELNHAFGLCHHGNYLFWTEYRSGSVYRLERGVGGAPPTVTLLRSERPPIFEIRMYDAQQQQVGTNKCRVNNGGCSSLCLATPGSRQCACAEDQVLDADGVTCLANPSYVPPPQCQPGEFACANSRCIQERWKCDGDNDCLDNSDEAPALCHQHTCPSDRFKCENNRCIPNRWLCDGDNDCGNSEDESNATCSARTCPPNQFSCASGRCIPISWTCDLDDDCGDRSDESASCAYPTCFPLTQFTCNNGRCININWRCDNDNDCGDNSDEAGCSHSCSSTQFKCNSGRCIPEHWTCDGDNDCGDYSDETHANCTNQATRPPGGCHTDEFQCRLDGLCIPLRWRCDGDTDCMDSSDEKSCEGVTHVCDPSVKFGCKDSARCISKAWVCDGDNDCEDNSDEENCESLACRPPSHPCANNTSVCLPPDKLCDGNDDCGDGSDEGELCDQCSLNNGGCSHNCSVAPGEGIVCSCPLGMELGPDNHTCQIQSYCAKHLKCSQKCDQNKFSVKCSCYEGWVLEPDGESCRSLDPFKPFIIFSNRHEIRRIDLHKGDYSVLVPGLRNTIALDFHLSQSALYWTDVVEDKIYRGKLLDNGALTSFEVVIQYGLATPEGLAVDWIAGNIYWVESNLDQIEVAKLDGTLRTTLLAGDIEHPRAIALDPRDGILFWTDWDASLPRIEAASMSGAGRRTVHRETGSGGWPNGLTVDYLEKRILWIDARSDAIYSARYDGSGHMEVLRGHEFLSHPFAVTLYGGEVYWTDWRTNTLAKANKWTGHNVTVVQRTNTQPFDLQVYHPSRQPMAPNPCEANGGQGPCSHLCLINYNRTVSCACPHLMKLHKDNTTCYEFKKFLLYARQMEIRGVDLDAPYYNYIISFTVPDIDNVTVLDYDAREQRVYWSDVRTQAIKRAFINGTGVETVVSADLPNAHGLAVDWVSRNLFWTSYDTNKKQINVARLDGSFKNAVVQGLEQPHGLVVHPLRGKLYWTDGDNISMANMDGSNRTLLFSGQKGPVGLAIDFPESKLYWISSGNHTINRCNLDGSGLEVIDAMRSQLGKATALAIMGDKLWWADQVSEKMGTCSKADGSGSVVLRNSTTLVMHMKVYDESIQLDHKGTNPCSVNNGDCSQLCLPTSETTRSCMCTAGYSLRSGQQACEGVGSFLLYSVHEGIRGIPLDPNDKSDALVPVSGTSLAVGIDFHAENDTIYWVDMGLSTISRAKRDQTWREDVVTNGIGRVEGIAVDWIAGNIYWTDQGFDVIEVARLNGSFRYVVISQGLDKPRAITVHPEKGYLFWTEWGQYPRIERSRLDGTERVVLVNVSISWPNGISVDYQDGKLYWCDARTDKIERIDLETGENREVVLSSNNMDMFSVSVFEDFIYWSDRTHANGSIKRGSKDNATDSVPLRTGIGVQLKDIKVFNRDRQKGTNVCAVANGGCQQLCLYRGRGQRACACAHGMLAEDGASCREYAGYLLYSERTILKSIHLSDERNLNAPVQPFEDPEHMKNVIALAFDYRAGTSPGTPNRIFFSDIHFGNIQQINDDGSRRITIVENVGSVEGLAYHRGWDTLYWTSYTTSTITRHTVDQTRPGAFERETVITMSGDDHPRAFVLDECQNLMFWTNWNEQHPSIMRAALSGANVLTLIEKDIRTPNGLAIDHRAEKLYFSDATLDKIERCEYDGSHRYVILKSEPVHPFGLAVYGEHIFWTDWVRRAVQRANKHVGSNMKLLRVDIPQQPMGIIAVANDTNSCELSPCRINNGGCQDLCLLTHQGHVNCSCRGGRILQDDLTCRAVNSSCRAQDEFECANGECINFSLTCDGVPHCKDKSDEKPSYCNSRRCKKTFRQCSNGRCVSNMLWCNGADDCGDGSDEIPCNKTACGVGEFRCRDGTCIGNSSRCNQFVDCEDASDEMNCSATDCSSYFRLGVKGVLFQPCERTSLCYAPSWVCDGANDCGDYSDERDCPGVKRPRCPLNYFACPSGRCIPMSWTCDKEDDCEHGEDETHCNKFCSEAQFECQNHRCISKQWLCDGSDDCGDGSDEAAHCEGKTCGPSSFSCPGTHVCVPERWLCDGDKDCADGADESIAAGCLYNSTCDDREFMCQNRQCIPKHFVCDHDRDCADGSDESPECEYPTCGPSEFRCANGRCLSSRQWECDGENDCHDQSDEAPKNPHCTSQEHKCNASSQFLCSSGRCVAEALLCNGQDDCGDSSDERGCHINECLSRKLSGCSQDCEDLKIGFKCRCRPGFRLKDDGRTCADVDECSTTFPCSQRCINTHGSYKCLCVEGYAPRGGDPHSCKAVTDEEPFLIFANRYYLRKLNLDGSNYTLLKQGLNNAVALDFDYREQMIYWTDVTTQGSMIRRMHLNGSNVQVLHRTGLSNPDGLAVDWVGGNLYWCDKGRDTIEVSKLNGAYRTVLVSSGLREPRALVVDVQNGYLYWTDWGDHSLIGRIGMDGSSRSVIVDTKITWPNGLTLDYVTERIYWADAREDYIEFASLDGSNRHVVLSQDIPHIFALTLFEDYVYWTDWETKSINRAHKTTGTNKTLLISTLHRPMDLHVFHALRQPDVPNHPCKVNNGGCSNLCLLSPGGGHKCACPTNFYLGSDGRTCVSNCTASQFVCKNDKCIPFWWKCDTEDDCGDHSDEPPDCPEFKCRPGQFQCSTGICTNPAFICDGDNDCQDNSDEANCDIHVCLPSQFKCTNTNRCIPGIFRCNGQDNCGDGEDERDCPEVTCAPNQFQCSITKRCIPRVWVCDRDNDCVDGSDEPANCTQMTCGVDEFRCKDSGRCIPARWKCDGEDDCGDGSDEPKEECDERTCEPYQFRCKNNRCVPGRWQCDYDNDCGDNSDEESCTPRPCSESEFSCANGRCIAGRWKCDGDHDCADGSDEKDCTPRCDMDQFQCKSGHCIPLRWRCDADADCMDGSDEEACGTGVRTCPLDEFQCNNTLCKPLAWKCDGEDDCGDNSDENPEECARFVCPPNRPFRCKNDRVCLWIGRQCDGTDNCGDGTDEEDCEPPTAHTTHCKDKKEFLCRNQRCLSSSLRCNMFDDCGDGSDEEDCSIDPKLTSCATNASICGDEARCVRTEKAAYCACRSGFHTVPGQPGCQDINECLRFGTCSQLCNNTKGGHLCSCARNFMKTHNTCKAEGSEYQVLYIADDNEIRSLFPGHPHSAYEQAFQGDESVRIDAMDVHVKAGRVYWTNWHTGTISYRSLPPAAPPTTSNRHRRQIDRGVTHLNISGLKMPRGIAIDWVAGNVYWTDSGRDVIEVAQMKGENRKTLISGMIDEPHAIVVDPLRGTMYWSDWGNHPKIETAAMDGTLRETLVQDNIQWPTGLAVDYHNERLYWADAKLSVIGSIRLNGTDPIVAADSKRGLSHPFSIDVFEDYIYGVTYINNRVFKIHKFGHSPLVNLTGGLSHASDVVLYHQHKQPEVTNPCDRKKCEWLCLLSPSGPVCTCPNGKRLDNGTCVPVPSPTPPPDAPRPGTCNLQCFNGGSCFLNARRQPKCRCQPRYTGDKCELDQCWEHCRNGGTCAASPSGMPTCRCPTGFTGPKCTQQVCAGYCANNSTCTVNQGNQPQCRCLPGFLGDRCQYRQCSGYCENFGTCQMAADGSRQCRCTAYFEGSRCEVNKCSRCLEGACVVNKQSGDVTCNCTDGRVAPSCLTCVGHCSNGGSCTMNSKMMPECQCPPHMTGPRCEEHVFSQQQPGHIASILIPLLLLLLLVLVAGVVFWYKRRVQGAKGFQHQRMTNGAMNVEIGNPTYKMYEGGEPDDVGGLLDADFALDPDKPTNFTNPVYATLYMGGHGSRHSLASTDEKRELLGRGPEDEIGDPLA

fold RAP binding against N2a-pcDNA3 cells (fold of N2a-pcDNA3 cells): 2.2
Substance: Alexa488-labeled receptor-associated protein (RAP) (from UniProt P30533 35-357) (ligand)
